We go through one substance from US20170267750A1, “Method of Treating Ovarian and Renal Cancer Using Antibodies Against T Cell Immunoglobulin Domain and Mucin Domain 1 (TIM-1) Antigen” (Celldex Therapeutics, Inc., priority 2005, published 2017).

The target of this test is TIM-1 (T cell, immunoglobulin domain and mucin domain 1), cell membrane-bound (human) (UniProt Q96D42). The test is described as follows: FACS on polarized human CD4+ Th2 cells, 10 ug/mL mAb, goat anti-human PE (control antibody background).
Chain of TIM-1 (T cell, immunoglobulin domain and mucin domain 1), cell membrane-bound (human) (Q96D42 21-364): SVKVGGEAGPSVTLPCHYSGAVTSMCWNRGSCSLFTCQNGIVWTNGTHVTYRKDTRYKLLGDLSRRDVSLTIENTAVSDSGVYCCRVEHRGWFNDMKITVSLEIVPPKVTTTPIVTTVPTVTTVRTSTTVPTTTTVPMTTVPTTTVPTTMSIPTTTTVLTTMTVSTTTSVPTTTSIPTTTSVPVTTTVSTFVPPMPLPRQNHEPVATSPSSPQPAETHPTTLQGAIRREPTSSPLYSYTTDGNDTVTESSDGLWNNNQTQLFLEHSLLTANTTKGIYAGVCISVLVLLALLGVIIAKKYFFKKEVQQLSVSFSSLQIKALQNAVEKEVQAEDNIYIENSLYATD

For “isotype matched control mAb PK16.3 (antibody)”, the Geometric mean of fluorescence intensity is 8.4.
